Data published in publication PMC9418810.

Molecular target: AcMYB1 (full length) in the AD plasmid pGADT7 (Allium cepa (onion))

AcANS or AcF3H1 promoter-luciferase reporter activation in Arabidopsis leaf protoplasts, coexpression of AcB2 and AcMYB1 compared with AcMYB1 alone: > 2.5 fold
Substance: AcB2 (full length, 1–615 aa) in the BD plasmid pGBKT7 (natural protein)
